The record followed here is patent publication US20250051443A1 (NATIONAL RESEARCH COUNCIL OF CANADA, published 2025).

Assay [1] concerns the target T1, human CD3 (human, UniProt P07766 23-207; P09693 23-182; P04234 22-171).
T1 construct: whole, on cells; also called CD3 on Jurkat T cells; CD3 on primary human T cells
The assay is described as follows: flow competition on Jurkat, 100 nM unlabeled mAb; competitor AF488-OKT-3 mIgG2b 1.5 nM. The procedure: (§1) In order to evaluate whether anti-CD3 monoclonal antibodies bind to the same epitope region, flow cytometry competition experiments on Jurkat cells were performed.
(§2) To that effect, a fixed concentration of the indicated AF488-labeled mAb were incubated with 100 nM of unlabeled monoclonal antibodies to assess if their binding capacity was impaired in presence of unlabeled mAbs. […] The AF488-OKT3 mIgG2b was labeled in-house using AlexaFluor488 protein labelling kit (Invitrogen #A10235) following manufacturer's instruction. The free dye removal step was done using Zeba™ Spin Desalting Columns, 7K MWCO (Thermo Scientific #89890). The final product was analyzed by UPLC-SEC to ensure the integrity of the labeled mAb.

Assay [2] addresses T1, human CD3. The assay is described as follows: flow competition on Jurkat, 100 nM unlabeled mAb; competitor AF488-UCHT1 5 nM. The method, boiled down:
(§3)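 Jurkat cells incubated with a fixed concentration of AF488-labeled anti-CD3 mAb plus 100 nM unlabeled mAb, with competition read by flow cytometry as impaired labeled-mAb binding. In-house AF488-OKT3 mIgG2b was desalted and checked for integrity by UPLC-SEC.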

Assay [3] has as its target T1, human CD3. The assay is described as follows: flow competition on Jurkat, 100 nM unlabeled mAb; competitor AF488-SP34.2 20 nM. The procedure: as §1, §2
Assay [4] addresses T1, human CD3. Description: flow competition on Jurkat, 100 nM unlabeled mAb; competitor AF488-SK7 1.5 nM. The method, boiled down: as §3
In assay [5] the target is T1, human CD3. Description: flow cytometry, hybridoma supernatant on CD3+ Jurkat cells. The procedure:
Cells were stained with either negative control mouse IgG (Jackson Immunoresearch cat #115-000-003) or an anti-GFP 3E6 mAb supernatant or tested hybridoma supernatant. Specific binding was reflected by the increase in the mean fluorescent intensity of antibody binding to Jurkat T-cells (FIGS. 1A to 1F, grey histograms) compared to the Jurkat CD3 negative cell line J.RT3-T3.5 (FIGS. 1A to 1F, open histograms). AF488 labeled positive control mAb OKT3 was also analyzed.
In general terms: Flow cytometry measures light scatter and fluorescence of single cells or particles in a stream.

Assay [6] addresses T1, human CD3. The assay is described as follows: cell-based or functional assay.
In assay [7] the target is T1, human CD3. The assay is described as follows: apparent KD (KDapp), flow cytometry titration on Jurkat cells. The method, then:
Unless otherwise stated, all media are kept are 4° C. and all incubations are performed on wet ice. Exponentially growing Jurkat cells were centrifuged and resuspended in complete medium at a cell density of 2×10⁶ cells/mL. Fifty μL/well of cells were distributed in a polypropylene v-bottom 96 well plate and serial 1/3 dilutions of purified mAbs starting at 300 nM were added and incubated for 2 hours. Cells were washed twice by centrifugation and further incubated with a FITC labeled F(ab′)2 goat anti-mouse antibody (Fc specific, #115-096-071, Jackson Immunoresearch, Cedarlane, Burlington, ON) for an hour. Cells were washed and re-suspended in medium containing Propidium iodide to exclude dead cells from analysis. Samples were filtered through a 60 μm nylon mesh filter plate (Millipore, Ireland) to remove cell aggregates. Flow cytometry analyses were performed on 2,000 viable single-cells events gated on forward scattering, side scattering parameters and propidium iodide dye exclusion using a BD-LSRFortessa flow cytometer (Becton-Dickinson Biosciences, CA, USA) and a standard filter set using BD FACSDiva™ acquisition software, according to manufacturer's instructions.

Assay [8] addresses T1, human CD3. Description: cell-based or functional assay. This is another data set of the same source.
Assay [9] has as its target T1, human CD3. The assay is described as follows: apparent KD (KDapp), flow cytometry titration on purified primary human T cells. In outline:
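Freshly isolated human T cells from PBMCs (negative pan-T selection), 1×10⁵ per test, stained 2 h at 4 °C with eight-point mAb dilutions from 300 or 100 nM, then APC anti-mouse IgG secondary 30 min. Background-subtracted flow MFI fitted by one-site specific binding with Hill slope for KDapp.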

B1: F282-2D5 (antibody, V domains shown)
VH: QVQLQQPGTELVKPGASVKLSCKASGYTFTSYWMHWVKQRPGQGLEWIGNINPSNGGTNYNENFKTKATLTVDKSSSTAYMQLSSLTSEDSAVYYCARDRSGQYYFDYWGQGTTLTVSS
VL: DIVMSQSPSSLAVSAGEKVTMSCKSSQSLLNSRTRKNYLAWYQQKPGQSPKLLIYWASTRESGVPDRFTGSGSGTDFTLTISSVQAEDLAVYYCIQSYHLRTFGGGTILEIK
notes: also called F282-2D5-2
As to B1, the “% residual fluorescence of labeled mAb” value with human CD3 [1] came to 78%; with human CD3 [2], 64%; with human CD3 [3], 7%; with human CD3 [4] it was 42%. In the assay with human CD3 [5], this molecule registered an MFI of 349 MFI. For the same molecule, the “IC50, indirect ADC surrogate growth inhibition (anti-mouse-DM1) on Jurkat cells” value in the assay with human CD3 [6] is 0.075 nM. Also, the “Span, indirect ADC surrogate growth inhibition on Jurkat cells” value with human CD3 [6] stood at 97%. Moreover, the Kd was determined as 0.3 nM in the assay with human CD3 [7] and 0.47 nM with human CD3 [9]. In addition, the “% max ref. OKT3 (dTomato activation)” value with human CD3 [8] was 98%. For the same molecule, the “EC50 of dTomato induction (CD69 promoter), Jurkat-CD69-dTomato cells, 24 h” value (“EC50 of dTomato induction” for short) with human CD3 [8] was determined as 0.13 µg/mL.

B2: F332-4D6 (antibody, mouse IgG2a, V domains shown)
VH: QVQLQQSGAELGKPGTSVKLSCKASGYTFTSYWIHWVKQRPGQGLEWIGNINPNSGSTNYNEKFKRKATLTADKSSSTAYMQLSTLTSEDFAVYYCTRDTSGQYYFDYWGQGTTLTVSS
VL: DIVMSQSPSSLAVSAGEKVTMSCKSSQSLLNSRTRKNYLAWYQQKPGQSPKVLIYWASTRESGVPDRFTGSGSGTDFTLTISSVQAEDLAVYYCKQSYHLRTFGGGTKLEIK
notes: also called F332-4D6-2; F322-4D6
On to B2, for which the “% residual fluorescence of labeled mAb” value in the assay with human CD3 [1] was 78%; with human CD3 [2], 76%; with human CD3 [3], 9%; with human CD3 [4] it was 44%. In the assay with human CD3 [5], the MFI was found to be 398 MFI. Besides, the “IC50, indirect ADC surrogate growth inhibition (anti-mouse-DM1) on Jurkat cells” value in the assay with human CD3 [6] was found to be 0.038 nM. In the assay with human CD3 [6], the “Span, indirect ADC surrogate growth inhibition on Jurkat cells” value was 92%. The Kd with human CD3 [7] was 0.5 nM; with human CD3 [9], 0.53 nM. Further, the “% max ref. OKT3 (dTomato activation)” value with human CD3 [8] amounted to 87%. The “EC50 of dTomato induction” value in the assay with human CD3 [8] is 0.18 µg/mL.

B3: F332-1E2 (antibody, mouse IgG2a, V domains shown)
VH: QVQLQQPGAELGKPGTSVKLSCKASGYTFTSYWIHWVKQRPGQGLEWVGNINPNSGSINYNEKFKNKATLTVDKSSSTAYMQLSTLTSEDFAVYYCTRDTSGQYYFDYWGQGTTLTVSS
VL: DIVMSQSPSSLAVSAGERVTMSCKSSQSLLNSRTRKNYLAWYQQKPGQSPKLLIYWASTRESGVPDRFTGSGSGTDFTLTISSVQAEDLAVYYCIQSYHLRTFGGGTKLEIK
notes: Sister clone 8C5 shares the same entries; also called F332-1E2-2; F332-1E2 (8C5)
With B3, the “% residual fluorescence of labeled mAb” value in the assay with human CD3 [1] came out at 77%; in the assay with human CD3 [2] it was 69%; with human CD3 [3], 6%; with human CD3 [4], 42%. Also, in the assay with human CD3 [5], the MFI stood at 319 MFI. Further, in the assay with human CD3 [6], the “IC50, indirect ADC surrogate growth inhibition (anti-mouse-DM1) on Jurkat cells” value was 0.031 nM. For the same molecule, the “Span, indirect ADC surrogate growth inhibition on Jurkat cells” value with human CD3 [6] was 95%. For the same molecule, the Kd was 0.3 nM with human CD3 [7] and 0.4 nM with human CD3 [9]. Also, in the assay with human CD3 [8], the “% max ref. OKT3 (dTomato activation)” value was found to be 104%. For the same molecule, the “EC50 of dTomato induction” value with human CD3 [8] came out at 0.16 µg/mL.

B4: F332-6D7 (antibody, mouse IgG2a, V domains shown)
VH: QVQLQQPGAELGKPGTSVNLSCKASGYTFTSYWMHWVKQRPGQGLDWIGNINPNSGTTNYNEKFKSKATLTVDKSSSTAYMQLSTLTSEDSAVYYCTRDISGQYYFDYWGQGTSLTVSS
VL: DIVMSQSPSSLAVSAGEKVTMSCKSSQSLLNSRTRKNYLAWYQQKPGQSPKLLIYWASTRESGVPDRFTGSGSGTDFTLTISSVQAEDLAVYYCKQSYSLRTFGGGSKLEIK
notes: also called F332-6D7-2; F332-6D7 (7G4)
As to B4, the “% residual fluorescence of labeled mAb” value with human CD3 [1] is 89%; in the assay with human CD3 [2], 73%; with human CD3 [3], 10%; in the assay with human CD3 [4], 44%. Besides, the MFI with human CD3 [5] came to 247 MFI. The “IC50, indirect ADC surrogate growth inhibition (anti-mouse-DM1) on Jurkat cells” value in the assay with human CD3 [6] was 0.072 nM. In addition, the “Span, indirect ADC surrogate growth inhibition on Jurkat cells” value with human CD3 [6] worked out at 96%. The figures for the Kd with human CD3 [7] and in the assay with human CD3 [9] were 0.8 nM and 0.46 nM, respectively. The “% max ref. OKT3 (dTomato activation)” value with human CD3 [8] worked out at 86%. The “EC50 of dTomato induction” value with human CD3 [8] was found to be 0.25 µg/mL.

B5: F332-1C9 (antibody, mouse IgG2a, V domains shown)
VH: QVQLQQPGAELGKPGTSVNLSCKASGYTFTSYWMHWVKQRPGQGLDWIGNINPNSGTTNYNEKFKSKATLTVDKSSSTAYMQLSTLTSEDSAVYYCTRDISGQYYFDYWGQGTSLTVSS
VL: DIVMSQSPSSLAVSAGEKVTMSCKSSQSLLNSRTRKNYLAWYQQKPGQSPKLLIYWASTRESGVPDRFTGSGSGTDFTLIISSVQAEDLAVYYCKQSYSLRTFGGGTKLEIK
notes: Sister clones 1A10, 5H8, 8B11 share the same entries; also called F332-1C9-2; F332-1C9 (1A10, 5H8, 8B11)
For the molecule B5, the “% residual fluorescence of labeled mAb” value in the assay with human CD3 [1] was determined as 89%; in the assay with human CD3 [2] it was 76%; with human CD3 [3], 12%; with human CD3 [4] it was 45%. The MFI with human CD3 [5] is 277 MFI. The “IC50, indirect ADC surrogate growth inhibition (anti-mouse-DM1) on Jurkat cells” value with human CD3 [6] came out at 0.072 nM. In the assay with human CD3 [6], the “Span, indirect ADC surrogate growth inhibition on Jurkat cells” value was found to be 94%. The Kd stood at 0.5 nM with human CD3 [7] and 0.94 nM in the assay with human CD3 [9]. The “% max ref. OKT3 (dTomato activation)” value in the assay with human CD3 [8] came to 94%. Besides, the “EC50 of dTomato induction” value with human CD3 [8] worked out at 0.2 µg/mL.

B6: F332-3E9 (antibody, mouse IgG2a, V domains shown)
VH: QVQLQQPGAELGKPGTSVKLSCKASGYTFTSYWIHWLKQRPGQGLEWIGNINPNGGSINCNEKFTTKATLTIDKSSSTAYMQLSTLTSEDFAVYYCTRDTSGQYYFDYWGQGTTLTVSS
VL: DIMMSQSPSSLAVSAGEKVTMSCKSSQSLLNSRTRKNYLAWYQQKPGQSPKLLIYWASTRESGVPDRFTGSGSGTDFTLTISSVQAEDLAVYYCTQSYHLRTFGGGTKLEIK
notes: also called F332-3E9-2; F332-3E9 (12G4)
Consider B6, for which the “% residual fluorescence of labeled mAb” value stood at 79% with human CD3 [1], 76% with human CD3 [2], 11% in the assay with human CD3 [3] and 45% in the assay with human CD3 [4]. Further, the MFI with human CD3 [5] amounted to 297 MFI. The “IC50, indirect ADC surrogate growth inhibition (anti-mouse-DM1) on Jurkat cells” value in the assay with human CD3 [6] was determined as 0.05 nM. Besides, the “Span, indirect ADC surrogate growth inhibition on Jurkat cells” value with human CD3 [6] turned out to be 94%. Also, the Kd stood at 0.5 nM with human CD3 [7] and 1 nM with human CD3 [9]. The “% max ref. OKT3 (dTomato activation)” value with human CD3 [8] is 84%. The “EC50 of dTomato induction” value in the assay with human CD3 [8] amounted to 0.11 µg/mL.
